Data taken from article PMC4218953 (2014).

What was measured:
[1] = target: vacant 70S ribosomes from E. coli MRE600 (E. coli); experiment: FRET; 4°C; 70S labelled at L23 with MDCC
[2] = target: vacant 70S ribosomes from E. coli MRE600 (E. coli); experiment: FRET; 25°C; 70S labelled at L23 with MDCC
[3] = target: vacant 70S ribosomes from E. coli MRE600 (E. coli); experiment: 25°C
[4] = target: Lep75-RNC (ribosome-nascent-chain complex carrying 75 N-terminal amino acids of leader peptidase) (E. coli | , UniProt P00803 1-75, f[3H]Met at the N-terminus; nascent chain bound to tRNA); experiment: 25°C

Binder | Kd [1] [nM] | Kd [2] [nM] | Kd [3] [nM] | Kd [4] [nM]
single-labelled SecYEG(Bpy) (complex, BODIPY FL (maleimide derivative) on Cys87) chain 1: MAKQPGLDFQSAKGGLGELKRRLLFVIGALIVFRIGSFIPIPGIDAAVLAKLLEQQRGTIIEMFNMFSGGALSRASIFALGIMPYICASIIIQLLTVVHPTLAEIKKEGESGRRKISQYTRYGTLVLAIFQSIGIATGLPNMPGMQGLVINPGFAFYFTAVVSLVTGTMFLMWLGEQITERGIGNGISIIIFAGIVAGLPPAIAHTIEQARQGDLHFLVLLLVAVLVFAVTFFVVFVERGQRRIVVNYAKRQQGRRVYAAQSTHLPLKVNMAGVIPAIFASSIILFPATIASWFGGGTGWNWLTTISLYLQPGQPLYVLLYASAIIFFCFFYTALVFNPRETADNLKKSGAFVPGIRPGEQTAKYIDKVMTRLTLVGALYITFICLIPEFMRDAMKVPFYFGGTSLLIVVVVIMDFMAQVQTLMMSSQYESALKKANLKGYGR chain 2: MSANTEAQGSGRGLEAMKWVVVVALLLVAIVGNYLYRDIMLPLRALAVVILIAAAGGVALLTTKGKATVAFAREARTEVRKVIWPTRQETLHTTLIVAAVTAVMSLILWGLDGILVRLVSFITGLRF chain 3: MYEALLVVFLIVAIGLVGLIMLQQGKGADMGASFGAGASATLFGSSGSGNFMTRMTALLATLFFIISLVLGNINSNKTNKGSEWENLSAPAKTEQTQPAAPAKPTSDIPN | 10 | 20 | – | –
double-labelled SecYEG(Bpy/Trp) (complex, BODIPY FL (maleimide derivative) on Cys87) chain 1: MAKQPGLDFQSAKGGLGELKRRLLFVIGALIVFRIGSFIPIPGIDAAVLAKLLEQQRGTIIEMFNMFSGGALSRASIFALGIMPYICASIIIQLLTVVHPTLAEIKKEGESGRRKISQYTRYGTLVLAIFQSIGIATGLPNMPGMQGLVINPGFAFYFTAVVSLVTGTMFLMWLGEQITERGIGNGISIIIFAGIVAGLPPAIAHTIEQARQGDLHFLVLLLVAVLVFAVTFFVVFVERGQRRIVVNYAKRQQGRRVYAAQSTHLPLKVNMAGVIPAIFASSIILWPATIASWFGGGTGWNWLTTISLYLQPGQPLYVLLYASAIIFFCFFYTALVFNPRETADNLKKSGAFVPGIRPGEQTAKYIDKVMTRLTLVGALYITFICLIPEFMRDAMKVPFYFGGTSLLIVVVVIMDFMAQVQTLMMSSQYESALKKANLKGYGR chain 2: MSANTEAQGSGRGLEAMKWVVVVALLLVAIVGNYLYRDIMLPLRALAVVILIAAAGGVALLTTKGKATVAFAREARTEVRKVIWPTRQETLHTTLIVAAVTAVMSLILWGLDGILVRLVSFITGLRF chain 3: MYEALLVVFLIVAIGLVGLIMLQQGKGADMGASFGAGASATLFGSSGSGNFMTRMTALLATLFFIISLVLGNINSNKTNKGSEWENLSAPAKTEQTQPAAPAKPTSDIPN | – | – | 20 | 10
